From the nanobody polyreactivity screen of Harvey et al. (2022)

Assay: yeast display, Sf9 membrane polyspecificity reagent, FACS + sequencing; frameworks hold sequencing errors
Procedure, shortened: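 Synthetic nanobody libraries on Saccharomyces cerevisiae BJ5465 were galactose-induced for 36–48 hours, stained 1 hour at 4 °C with 10% biotinylated, detergent-solubilized Sf9 membrane reagent and enriched on streptavidin microbeads. FACS then separated cells into low and high (top ~1%) gates by anti-HA (expression) and streptavidin (reagent binding) fluorescence. Genes were colony-PCR amplified, MiSeq 2 × 250 sequenced and CDR-length filtered. A clone's polyreactivity label is that of its gate of origin.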

| Sequence | polyreactivity (PSR sort gate) |
| --- | --- |
| QVQLVESGGGLVQAGGSLRLSCAASGRTFSRYAIGWYRQAPGKERELVASITSRGGSTYYADSVKGRFTISRDNAKNTVYLQMNSLKPEDTAVYYCNVKPTYSPRYWEDYWGQGTQVTVSS | high polyreactivity |
| QVQLVESGGGLVQAGGSLRLSCAASGFTFFYNAMGWYRQAPGKEREFVAAISGRGGTTYYADSVKGRFTISRDNAKNTVYLQMNSLKPEDTAVYYCNAGSSPIRQYYGQVWKKGGYWGQGTQVTVSS | high polyreactivity |
| QVQLVESGGGLVQAGGSLRLSCAASGSIFGYYAMGWYRQAPGKERELVAAIRRSGGSTYYADSVKGRFTISRDNAKNTVYLQMNSLKPEDTAVYYCAARFKSSDWHYYYWGQGTQVTVSS | high polyreactivity |
| QVQLVDSGGGLVQEGGSLRISCAASGFTFPRNAMGWYIQAPGKERELVAAINSGGGTNYADSVKGRFTISRDNAKNTVYLQMNSLKPEDTAVYYCAKDHGSFEMDYWGLGTQVTVSS | low polyreactivity |
| QVQLVESGGCLVQAGGSLRLSCAASGFIFSRNAIGWYRQAHGKERELVAAISLRGGSTYYADSVKGRFTISRDYAKNTVYLQMNSLKPEDTAVYYCAAPLFSGYDYWVQGTQVTVSS | low polyreactivity |
| QVQLVESGGGLVQAGGRLRLSCAASGRIFSTYAMGWYRQAPGKQRQLVAAINKSGGSTYYADSVKGRFTISRDTAKNTVYLQMNSLKPEDTAVYYCAADQSYPKRLPSFEYWGQGTQVTVSS | low polyreactivity |
| QVQLVESGGGLVQAGGSLRLSCAASGRIFAIYAMGWYRQAPGKERELVAGITYSAGSTYYADSVKGRFTISRDNAKNTVYLQMNSLKPEDTAVYYCAALEYNSHRYGYDYWGQGTQVTVSS | low polyreactivity |
| QVQLVESGGGLVQAGGSLRLSCAASGFTFYSYAMGWYRQAPGKEREFVAAGSTYYADSVKGRFTISRDNAKNTVYLQMNSLKPEDTAVYYCAADPWIYVQSYGYWGQGTQVTVSS | low polyreactivity |
| QVQLVESGGGLVQAGGSLRLSCAASGFTFTFNAMGWYRQAPGKERELVAGITSGTSTNYADSVKGRFTISRDNAKNTVYLQMNSLKPEDTAVYYCAADLYLTSGSQGVYVRYDYWGQGTQVTVSS | low polyreactivity |
| QFQLVESGGGLVQAGGSLRLSCAASGITFGSSAMGWYRQAPGKDRELVAAIDTSGDDTYYADSVKGRFTISRDNAKNTVYLQMNSLKPEDTAVYYCNAVSTASDEYDYWGQGSQVTVSS | low polyreactivity |
| QVQLVESGGGLVQAGGRLRLTCAASGITFTGNAMGWYRQAPGKERELVAVITSGGSTYYADSVKGRFTISRDNAKNTVYLQMNSLKPEDTAVYYCAAPVYYYYSKAMDYWGQGTQVTVSS | high polyreactivity |
| QVQLVESGGGLVQAGGSLRLSCAASGLIFVQNAMGWYRQAPGKEREFVAAISAGGTRTYYADSVKGRFTISRDNAKNTVYLQMNSVKPEDTAVYYCAAASGYDYWGQGTQGTVSS | high polyreactivity |
| QVQLVESGGGLVQAGGSLRLSCAASGYTFVRYAMGWYRQAPGKERELVAAISRSGGSTYYADSVKGRFTISRDNAKNTVYLQMNSLKPEDTAVYYCNAYPYSYYDYDYWGQGTQVTVSS | high polyreactivity |
| QVQLVESGGGLVQAGGSLRLSCAASGSTIRYYVKGWYRQAPGKERELVAAISYNGGSTYYADSVKGRFTISRDTAKNTVYLHMNSVTPEDTAVYYCAADAPYRSSGKDYWGQGTQVTVSS | high polyreactivity |
| QVQLVESGGGLVQAGGSGRLSCAASGRIFAGYAMGWYIQAPGKERELVAAISSSGGSTYYSDSVKGRFTISRDNAKNSVYLQMNSLKPEDTAVYYCADRGKRNTPQRFYYWGQGTQVTVSS | high polyreactivity |
| QVQLVESGGGLVQAGGSLRLSCAASGSTLYAYAMGWYRQAPGKERELVAAISSRAVRTYYADSVKGRFTISRDNAKNTVYLQMNSMKPEDTAVYYCAAQRSYAYEYWGQGTQVTVSS | high polyreactivity |
| QVQLVESGGGLVQAGGSLRLSCAASGISSWYYAMGWYRQAPGKERELVAAITSDGRTNYADSVKGRFTISRDNAKNTVYLQMKSLKPEDTAVYYCAAARRVGVSHYRYGYWGHGTQVTVSS | high polyreactivity |
| QVQLVESGGGLVQEGGSLRLSCAASGRTFVPYAMGWYRQAPGKERELVAAISRSGGRTYYADSVKGRFTLSRDNAKNTVYLQMKSLKPEDTAVYYCAARYYSEPNAYYYWGQGTQVSVSS | high polyreactivity |
| QVQLVESGGGLVQAGGSLRLSCAASGSTFVDNAMGWCRQAPGKERELVADISSGGSTYYADSVKGRFTISRDNAKNTVYLQMNSLKPEDTAVYYCAARGVYRRGKYNSWGQGTQVTVSS | high polyreactivity |
| QVQLVESGGGLVQAGGSLRLSCAASGFIFSYNAMGWYRQAPGKERELVAAISSRGGSTYYADSVMGRFTISRDNAKNTVYLQMNSLKPEDTAVSYCAVASRRVYTAPSDYWGQGTQVTVSS | high polyreactivity |
| QVQLVESGGGLVQAGGSLRLSCAASGYTFLYYAMGWYRQAPGKEREFVAAISRSGGSTYYADSVKGRFTISRDNAKNTVYLQMNSLKPEDTAVYFCAARFRYQHQRGDYWGQGTQVTVSS | high polyreactivity |
| QVQLVESGGGLVQAGGSLRLSCAASGNICRINGMGWYRQAPGKERELVASITRSGSTYYADSVKGRFTISRDNAKNTVYLQMNSLKPEDTAVYYCNADGWYWQAQGYDYWGQGTQVTVSS | low polyreactivity |

| Sequence | polyreactivity (PSR sort gate) |
| --- | --- |
| QVQLVESGGGLVQAGGSLRISCAASGLILIVYAMGWYRQAPGKERELVAAISSGGITYYADSVKGRFTISRDNAKNTVYLQMNSLKPEDTAVYYCAAESAYWWGDYYYWGQGTQVTVSS | high polyreactivity |
| QVQLVESGGGLVQAGGSLRLSCAASGRIFGQNVMGWYIQAPGKERELVAAITSAGRTYYADSVKGRFTISRDIAKNTVYLQMKSLKPEDTAVYYCAAYVRRGFDWGQGTQVTVSS | high polyreactivity |
| QVQLQESGGGLVQAGGSLRLSCAASGTIFYKDDMGWYRQAPGKEREFVAGIDRGGTTNCAGSVKGRFTISRDNAKNTVYLQMISLKPEDTAVYYCAAYYPDIYPFIYRGQGTQVTVSS | high polyreactivity |
| QVQLVESGGGLVQAGCSLRLSCAASGSIFSYYDMGSYRQAPGKERELVAGISRGGSTNYADSVKGRFTISRDNAKNTVYLQMNILKPEDTAVYYCNADQSSRTYPFRLSRRSLLYGYWGLGTQVTVSS | low polyreactivity |
| QVQLVESGGGLVQAGGSLRLSCAASGSTLYAYAMGWYRQAPGKERELVAAISFSTTSTYYADSVKGRFTISRDNAKNTVYLQMNSLKPEVTAVYYCAAEYWYYWEYEYWGQGTQVTVSS | high polyreactivity |
| QVQLVESGGALVQAGGSLRVSCAASGFIFYGYAMGWYRQAPGKERELVAAISSGGGRTYYADSVKGRFTISRDNAKNTVYLQMNSLKPEDTAVYYCAAKVYYYTGGGGEDYWGQGTQVTVSS | low polyreactivity |
| QVQLVESGGGLVQAGGSLRLSCAASGRTFYSNAMGWYRQAPGKERELVATISSGGSTNYADSVKGRFTISRDNAKNTVYLQMNSLKPEDTAVYYCATRPDRINDYWGQGTQVTVSS | low polyreactivity |
| QVQHVESGGGLVQAGGSLRLSCAASGSTFVYYAMGWYRQPPGKERELVAVITRGGRTYYADSVKGRFTISRDNAKNTVYLQMNSLKPEDTAVYYCNKVTPHYHDTGLDYWGQGTQVTVSS | high polyreactivity |
| QVQLVESGGALVQAGGSLRLSCAASGYIFRYYAMGWYRQAPGKVREFVAAISRNGGSKSYADSVKGRFTISRDNAKNTVYLQMISLKPEDTAVYYCNKRVGFLYKSDYWGQGTQVTVSS | high polyreactivity |
| QVQLVESGGGLVQAGGSLRLSCAASGSTFRRNVMGWYRQAPGKEREFVAAISYRTGSTYYADSVKGRFTISRDNAKNTVYLQMNSLKPEDTAVYYCAASSQWVGYYYWGQGTQVTVSS | high polyreactivity |
| QVQLVESGGGLVQAGGSLRLSCAASGRIFLVNTMGWYRQAPGKERELVATITFSVVRTYYADSVKGRFTISRDNAKNSVYLQMNSLKPEVTAVYYCAKQHLVSVPEMYYWGQGTQVTVSS | low polyreactivity |
| QVQLVESGGGLVQAGGSLRLSCAASGRIFGNYAMGWYRQAPGKERELVAAIRWSGGRTYYADSVKGRFTISRDTAKNTVYLQMNSLKPEDTAVYYCNAYGRYSYPTFDYWGQGTQVTVSS | high polyreactivity |
| QVQLVESGGGLVQAGGSLRLSCAASGRPFNRNAMGWYRTAPGKERELVASITSRGGSTYYADSVKGRFTISRDNAKNTVYLQMNSLKTEDTAVYYCAGYTRNGDYDYWGQGTQVTFSS | high polyreactivity |
| QVQLEESGGGLVQAGGSLRLSCAGSGGIFDVYAIGWYRPAPGKERELVAAITASGGSTYYADSVQGRFTISRDNAKNTVYFQMNSLKPEDTAGYYCAVQGFRYHSREYDYWGQGTQVTVSS | low polyreactivity |
| QVQLVESGGGIVQAGGSLRLSCAASGFTFTHYAMGWYRQAPGKERELVAAISPSGGSTYYADSVKGRFTISRDNAKNTVYLQMNSLKTEDTAVFYFAARRDGWVQWGYYYWGQGTEVTVSS | low polyreactivity |
| QVQLVESGGGLVQAGGSLRLSCASSGSTFPEYAMGWYRQAPGKERELVAVISFGDGNTYYADSVKGRFTISRDNAKNTVYLQMNSLKPEDTAVYYCNAADDSVDQSVRTLRQYEYWGQGTQVTVSS | low polyreactivity |
| QVQLVESGGGLVQAGGSLRLSCAASGFNFYSNAMGWYRQEPGKERELVADINRGGTSTYYADSVKGRFTISRDNAKNTVYLQMNSLKPEDTAVYYCNAGLRYRSRLWNIYWYDYWGQGTQVTVSS | high polyreactivity |
| QVQLVESGGGLVQAGGSLRLSCAASGLIIYRYAMGWYRQAPGKERELVAAISSTGGRTYYADSVKGRFTISRDNAKNTVYLQMNSLKPEDTAVYYCNADYGWKYVQYYYWGQGTQVTVSS | high polyreactivity |
| HVQLVESGGGLVQAGGSLRLSCAASGRISGANMGWDRQAPGKERELGAAISNGGSTNYADSVKGRFTISRANAKNTVYLQMNSLKPEDTAVYYCAKLGPRSYSSYRYDYWGQGTQVTVSS | high polyreactivity |
| QVQLVESGGGLVQAGGSLRLSCAASGITFYEYAMGWYRQAPGKEREFVAAIDDGDSSTYYADSVKGRFTISRDNAKNTVYLQMNSLKPEDTAVYFCNADPYYDYSLNWGDYWGQGTQVTVSS | low polyreactivity |
| QVQLVESGGVLVQAGGSLRLSCAASGRTFRYYGMGWYRQAPGKERVVAAITWSGDTTYYADSVKGRFTISRDNAKNTVYLQMNSLKPEDTAVYYCAAQSWHRYYYWGQGTQVTVSS | high polyreactivity |
